T1: HLA-DR DRB1*0101 (human)
T1 chain 1: not shown
T1 chain 2: not shown

T2: HLA-DR DRB1*1302 (human)
T2 chain 1: not shown
T2 chain 2: not shown

T3: HLA-DR DRB1*0701 (human)
T3 chain 1: not shown
T3 chain 2: not shown

T4: HLA-DR DRB5*0101 (human)
T4 chain 1: not shown
T4 chain 2: not shown

T5: HLA-DR DRB4*0101 (human)
T5 chain 1: not shown
T5 chain 2: not shown

T6: HLA-DR DRB1*0401 (human)
T6 chain 1: not shown
T6 chain 2: not shown

T7: HLA-DR DRB1*0405 (human)
T7 chain 1: not shown
T7 chain 2: not shown

T8: HLA-DR DRB1*1101 (human)
T8 chain 1: not shown
T8 chain 2: not shown

T9: HLA-DR DRB1*0404 (human)
T9 chain 1: not shown
T9 chain 2: not shown


Experiments:
Details in all cases: remark: other sources report otherwise
HLA-DR DRB1*0101 (human) [1] = target: T1, HLA-DR DRB1*0101 (human); assay: radioligand inhibition, purified HLA-DR
HLA-DR DRB1*1302 (human) [2] = target: T2, HLA-DR DRB1*1302 (human); assay: radioligand inhibition, purified HLA-DR
HLA-DR DRB1*0701 (human) [3] = target: T3, HLA-DR DRB1*0701 (human); assay: radioligand inhibition, purified HLA-DR
HLA-DR DRB5*0101 (human) = target: T4, HLA-DR DRB5*0101 (human); assay: radioligand inhibition, purified HLA-DR
HLA-DR DRB4*0101 (human) = target: T5, HLA-DR DRB4*0101 (human); assay: radioligand inhibition, purified HLA-DR
HLA-DR DRB1*0401 (human) [4] = target: T6, HLA-DR DRB1*0401 (human); assay: radioligand inhibition, purified HLA-DR
HLA-DR DRB1*0101 (human) [5] = target: T1, HLA-DR DRB1*0101 (human); assay: radiolabeled-peptide inhibition, purified HLA-DR
HLA-DR DRB1*1302 (human) [6] = target: T2, HLA-DR DRB1*1302 (human); assay: radiolabeled-peptide inhibition, purified HLA-DR
HLA-DR DRB1*0405 (human) [7] = target: T7, HLA-DR DRB1*0405 (human); assay: radiolabeled-peptide inhibition, purified HLA-DR
HLA-DR DRB1*0401 (human) [8] = target: T6, HLA-DR DRB1*0401 (human); assay: radiolabeled-peptide inhibition, purified HLA-DR
HLA-DR DRB1*1101 (human) = target: T8, HLA-DR DRB1*1101 (human); assay: radioligand inhibition, purified HLA-DR
HLA-DR DRB1*0405 (human) [9] = target: T7, HLA-DR DRB1*0405 (human); assay: radioligand inhibition, purified HLA-DR
HLA-DR DRB1*0404 (human) = target: T9, HLA-DR DRB1*0404 (human); assay: radioligand inhibition, purified HLA-DR
HLA-DR DRB1*0701 (human) [10] = target: T3, HLA-DR DRB1*0701 (human); assay: radiolabeled-peptide inhibition, purified HLA-DR

Binder | IC50 (HLA-DR DRB1*0101 (human) [1]) [nM] | IC50 (HLA-DR DRB1*1302 (human) [2]) [nM] | IC50 (HLA-DR DRB1*0701 (human) [3]) [nM] | IC50 (HLA-DR DRB4*0101 (human)) [nM] | IC50 (HLA-DR DRB1*0401 (human) [4]) [nM] | IC50 (HLA-DR DRB1*0404 (human)) [nM] | other results
EGPLPAARPAGATLE [Peptide 9019.0101] | 17300 | 10200 | 7460 |  |  |  | 
MRKIVATWMLEVCEE [Cyclin D1.56] | 764 | 356 | 249 | 281 | 7950 |  | IC50 (HLA-DR DRB5*0101 (human)): 17000 nM
HRDLAARNVLVKSPN [9019.0085] |  |  |  |  |  |  | IC50 (HLA-DR DRB1*0101 (human) [5]): 158 nM; IC50 (HLA-DR DRB1*1302 (human) [6]): 116 nM; IC50 (HLA-DR DRB1*0405 (human) [7]): 11200 nM; IC50 (HLA-DR DRB1*0401 (human) [8]): 401 nM
QYSWRINGIPQQHTQ [CEA.624 peptide 9019.0138] | 472 |  |  | 2290 | 43 |  | IC50 (HLA-DR DRB1*1101 (human)): 151 nM; IC50 (HLA-DR DRB1*0405 (human) [9]): 311 nM
GVTVWELMTFGAKPY [Peptide 9019.0090] | 40 | 8860 |  |  |  | 4.1 | IC50 (HLA-DR DRB1*0405 (human) [9]): 2110 nM
KELAVFREKVTEQHR [Peptide 9019.0186] | 2040 |  |  |  |  | 26 | 
PERLAACGPPPVAPP [Peptide 9019.0179] | 28 |  |  |  | 5540 |  | 
EPKKLRPPPARTPCQ [Peptide 9019.0188] |  |  |  |  | 806 |  | 
SDSVILNVLYGPDAP [CEA.123 peptide 9019.0119 (position 226)] |  | 83 | 5240 | 612 | 255 |  | IC50 (HLA-DR DRB1*1101 (human)): 9210 nM
APTISPLNTSYRSGE [CEA.239 peptide 9919.0121] | 2430 | 125 | 10600 |  | 295 | 40 | IC50 (HLA-DR DRB1*0405 (human) [9]): 5990 nM
LAALCRWGLLLALLP [Her/neu.3] | 2040 | 704 | 8000 |  | 5390 |  | 
GYVIGTQQATPGPAY [CEA.81 peptide 9019.0110] | 21 | 43 | 1700 | 63 | 31 | 34 | IC50 (HLA-DR DRB5*0101 (human)): 10200 nM
MAGVGSPYVSRLLGI [9019.0078] |  |  |  |  |  |  | IC50 (HLA-DR DRB1*0701 (human) [10]): 352 nM
SPGLSAGATVGIMIG [CEA.680 peptide 9019.0144] | 3510 | 80 | 92 | 2590 | 4190 |  | 
TMNMLGGGGSAGRKP [Peptide 9019.0184] | 1020 | 5690 | 6180 |  | 791 |  | 
DNSIRPEELLQMELL [Cyclin D1.129] | 4550 | 939 | 6650 | 87 | 4680 | 2800 | IC50 (HLA-DR DRB1*0405 (human) [9]): 16500 nM
GPAYSGREIIYPNAS [CEA.92 peptide 9019.0111] | 9440 | 154 | 5260 |  | 13000 |  | 
FRELVSEFSRMARDP [Peptide 9019.0096] |  |  | 5060 |  | 22 | 51 | IC50 (HLA-DR DRB1*1101 (human)): 381 nM; IC50 (HLA-DR DRB5*0101 (human)): 380 nM
NDRVLRAMLKAEETC [Cyclin D1.24 peptide 9019.0147] |  |  |  |  | 1960 |  | 
FYTLHVIKSDLVNEE [CEA.119 peptide 9019.0114] |  |  | 56 | 22 |  | 169 | IC50 (HLA-DR DRB5*0101 (human)): 4500 nM; IC50 (HLA-DR DRB1*0405 (human) [9]): 41 nM
